Laboratory results as given in patent US20090068207A1, “Compositions Containing Beta 2-Glycoprotein I-Derived Peptides for the Prevention and/or Treatment of Vascular Disease” (Vascular Biogenics Ltd., priority 2005, published 2009).
“And” between values parts separate entries of the source, which are not always exact repeats. Equal values may be shown once.

Tests used:
LDL-RD mice = assay: Aortic sinus lesion area after nasal tolerance induction, Western diet; type: in vivo; conditions: END, intranasal 10 μg/mouse every other day for 5 days, then Western diet, mean ± S.E
Procedure: Nasal Tolerance: Nasal tolerance was induced by intranasal administration of oxidized LDL, β2GPI, β2GPI-derived peptides or HSP65, in a total volume of 10 μl PBS. Intranasal administration was performed on mildly sedated mice (12-16 weeks old), each mouse receiving 3 doses of antigen per dose, in the indicated concentrations, every other day. Atherogenesis was induced by 5 weeks of a Western diet initiated on the day following the last intranasal administration, or assessed (in Apo E KO mice) after 8 weeks on a chow diet. Controls received equal amounts of BSA and/or PBS, as indicated, in an identical regimen. Plasma was obtained for assessment of cholesterol and triglyceride levels from all mice, and the mice were sacrificed for evaluation of atherosclerosis, as described hereinbelow, after 5 weeks Western diet, or (in Apo E KO mice) after 8 weeks on a chow diet.
Assessment of Atherosclerosis: Quantification of atherosclerotic fatty streak lesions was done by calculating the lesion size in the aortic sinus as previously described (16) and by calculating the lesion size in the aorta. Briefly, after perfusion with saline Tris EDTA, the heart and the aorta were removed from the animals and the peripheral fat cleaned carefully. The upper section of the heart was embedded in OCT medium (10.24% w/w polyvinyl alcohol; 4.26% w/w polyethylene glycol; 85.50% w/w nonreactive ingredients) and frozen. Every other section (10 μm thick) throughout the aortic sinus (400 μm) was taken for analysis. The distal portion of the aortic sinus was recognized by the three valve cusps that are the junctions of the aorta to the heart. Sections were evaluated for fatty streak lesions after processing and staining with oil-red O, according to Paigen et al (Atherosclerosis, 1987; 68:231-40). Lesion areas per section were scored on a grid (17) by an observer counting unidentified, numbered specimens. The aorta was dissected from the heart and surrounding adventitious tissue was removed. Fixation of the aorta and Sudan staining of the vessels were performed as previously described (21).
Mice were bled prior to feeding (Time 0) and at the conclusion of the experiment (End) for determination of lipid profile. Atherosclerosis was assessed in heart and aorta as described above, 8 weeks after the last feeding. Mice were weighed every 2 weeks during the experiment. All mice were fed water ad libitum and a normal chow-diet containing 4.5% fat by weight (0.02% cholesterol), up to the final antigen exposure, and then a “Western” diet until sacrifice.
Thus, nasal exposure to a low dose and an exceedingly low dose of recombinant human HSP 65 were compared for their effectiveness in suppressing atherogenesis in LDL-RD mice. 58 male 12-16 week old LDL-RD mice were divided into 4 groups.

lymph node cells = assay: Lymph node cell proliferation (stimulation index) to oxLDL after oral administration; type: in vivo, mice; conditions: oral, 3 doses of 100 μg; LDL-RD mice immunized with OxLDL; OxLDL challenge; mean ± S.E.
Procedure: Proliferation was measured by the incorporation of [^3H] thymidine into DNA during the final 12 h of incubation. The results were computed as stimulation index: the ratio of the mean cpm of the antigen to the mean background cpm obtained in the absence of the antigen.
[…] Three days after the final administration of peptides, the mice were immunized with OxLDL in incomplete Freund's adjuvant, as described in the Examples above, and lymph node cells assessed for antigen (OxLDL) stimulation of proliferation 10 days later. Proliferation was assessed by incorporation of thymidine, expressed as the Stimulation Index, as described.

[1] = tested on: inguinal lymph node cells; assay: Lymph node cell proliferation (stimulation index) to sensitizing antigen β2GPI after mucosal administration; type: in vivo, mice; conditions: then immunization with human β2GPI, LDL-RD mice
Procedure: Immunization: Subcutaneous immunization with human β2GPI: Human β2GPI was prepared from human plasma pool as described above. For immunization, human β2GPI was dissolved in PBS and mixed with equal volumes of Freund's incomplete adjuvant. Immunizations were performed by single subcutaneous injection of 10 μg antigen/mouse in 0.1 ml volume. Three days following the last mucosal administration of plaque associated molecules the mice received one immunization, and were sacrificed 10 days post immunization.
Proliferation assays: Mice were exposed to the tested antigen as described for assessment of atherosclerosis, and then immunized (one to three days following the last exposure) subcutaneously with 10 μg β2GPI in 0.1 ml PBS, prepared from purified human β2GPI as described above.
Proliferation was assayed ten days after immunization with the β2GPI as follows: Draining inguinal lymph nodes were prepared by mashing the tissues on 100 mesh screens. Red blood cells were lysed with cold sterile double distilled water (6 ml) for 30 seconds and 2 ml of NaCl 3.5% was added. Incomplete medium was added (10 ml), cells were centrifuged for 7 min at 1,700 rpm, resuspended in RPMI medium and counted in a haemocytometer at 1:20 dilution (10 μl cells+190 μl Trypan Blue). Proliferation was measured by the incorporation of [^3H] Thymidine into DNA in triplicate samples of 100 μl of the packed cells (1×10^6 cells/ml) in a 96 well microtiter plate. […] Thymidine (0.5 μCi/well) was added. After an additional 12-24 hours of incubation the cells were harvested and transferred to glass fiber filters using a cell harvester (Brandel) and counted using β-counter (Lumitron). Proliferation was measured by the incorporation of [^3H] thymidine into DNA during the final 12 h of incubation. The results are expressed as the stimulation index (S.I.): the ratio of the mean radioactivity (cpm) of the antigen to the mean background (cpm) obtained in the absence of the antigen. Standard deviation was always <10% of the mean cpm.
Tolerance induced by mucosal exposure to plaque-associated molecules may be mediated by suppression of specific immune responses to antigenic portions (epitopes) of these plaque associated molecules. Lymphocyte proliferation in response to mucosal (nasal and oral) exposure to human β2GPI was measured in […]. 9 male, 5 week old LDL-RD mice were divided into 3 groups. In group A (n=3) oral tolerance was induced with 100 μg/mouse β2GPI suspended in 0.1 ml PBS, administered by gavage, as described above, every other day for 5 days. In group B (n=3) nasal tolerance was induced with 10 μg/mouse β2GPI suspended in 10 μl PBS, administered intranasally as described above, every other day for 5 days. The mice in group C (n=3) received oral administration of 200 μl PBS every other day for 5 days. Immune reactivity was stimulated in all mice by immunization with human β2GPI as described above in the Materials and Methods section, one day after the last feeding. Ten days after the immunization lymph nodes were collected for assay of proliferation (as expressed in the Stimulation Index SI). All mice were fed normal chow-diet containing 4.5% fat by weight (0.02% cholesterol) and water ad libitum.

ApoE-KO mice = assay: Aortic sinus lesion area after oral administration in ApoE-KO mice; type: in vivo
Text: Assessment of Atherosclerosis: Quantification of atherosclerotic fatty streak lesions was done by calculating the lesion size in the aortic sinus as previously described (16) and by calculating the lesion size in the aorta. Briefly, after perfusion with saline Tris EDTA, the heart and the aorta were removed from the animals and the peripheral fat cleaned carefully. The upper section of the heart was embedded in OCT medium (10.24% w/w polyvinyl alcohol; 4.26% w/w polyethylene glycol; 85.50% w/w nonreactive ingredients) and frozen. Every other section (10 μm thick) throughout the aortic sinus (400 μm) was taken for analysis. The distal portion of the aortic sinus was recognized by the three valve cusps that are the junctions of the aorta to the heart. […] Lesion areas per section were scored on a grid (17) by an observer counting unidentified, numbered specimens. The aorta was dissected from the heart and surrounding adventitious tissue was removed. Fixation of the aorta and Sudan staining of the vessels were performed as previously described (21).
In order to determine the protective effect of mucosal administration of β2GPI on development of atherosclerosis, adult ApoE-KO mice were treated with oral administration of human β2GPI. 20 week-old male ApoE-KO mice, having advanced atherosclerotic lesions were treated monthly with human β2GPI (50 μg/dose) or PBS (0.2 ml) in 5 oral administrations (by gavage, as described hereinabove) given every other day, for four months. Lesion area calculated from cryosections of the aortic sinus were compared between control untreated 20 week old mice, and mice following 16 weeks oral administration of β2GPI or PBS.
10-11 week-old male ApoE-KO mice, having early atherosclerotic lesions, were treated with 5 oral administrations (by gavage, as described hereinabove) given every other day of human β2GPI peptide S-4 (SEQ ID NO: 14) or human β2GPI (50 μg/dose) or PBS (0.2 ml). Lesion areas calculated from cryosections of the aortic sinus were compared between control untreated, human β2GPI treated and S-4 human β2GPI-derived peptide treated mice at 8 weeks following the last oral administration of the antigens, or of PBS.

B1: Human β2 GPI: human beta2-glycoprotein I (SEQ ID NO: 10) purified from serum (protein)
chain: MISPVLILFSSFLCHVAIAGRTCPKPDDLPFSTVVPLKTFYEPGEEITYSCKPGYVSRGGMRKFICPLTGLWPINTLKCTPRVCPFAGILENGAVRYTTFEYPNTISFSCNTGFYLNGADSAKCTEEGKWSPELPVCAPIICPPPSIPTFATLRVYKPSAGNNSLYRDTAVFECLPQHAMFGNDTITCTTHGNWTKLPECREVKCPFPSRPDNGFVNYPAKPTLYYKDKATFGCHDGYSLDGPEEIECTKLGNWSAMPSCKASCKLPVKKATVVYQGERVKIQEKFKNGMLHGDKVSFFCKNKEKKCSYTEDAQCIDGTIEVPKCFKEHSSLAFWKTDASDVKPC
LDL-RD mice
  Aortic sinus lesion (μm^2): 46250 ± 4486 μm^2
Lymph node cells
  Stimulation index: 38 ± 12
[1]; nasal 10 μg/mouse every other day for 5 days
  S.I (Stimulation Index): 2.1 ± 0.5
[1]; oral 100 μg/mouse every other day for 5 days
  S.I (Stimulation Index): 4.4 ± 0.5
ApoE-KO mice; End, oral 50 μg, 5 doses, ApoE-KO mice
  Aortic sinus lesion (μm^2): 90833 ± 9502 μm^2
ApoE-KO mice; oral 50 μg, 5 doses, then 8 weeks of chow diet, 10-11 week-old ApoE-KO mice
  reduction of progression of atherosclerotic lesions compared to PBS controls: 47%
ApoE-KO mice; oral 50 μg/dose, 5 administrations monthly for four months, 20 week-old ApoE-KO mice, 16 weeks
  inhibition of progression of atherosclerotic lesions as compared to PBS control: > 30% and 35%
